Measurements published in patent US20200261490.

Assays:
[1] = target: recombinant human stanniocalcin 1, C-terminally myc-his-tagged
[2] = target: recombinant human stanniocalcin 2, C-terminally myc-his-tagged

B1: human matrix metalloproteinase-2 (protein)
chain: APSPIIKFPGDVAPKTDKELAVQYLNTFYGCPKESCNLFVLKDTLKKMQKFFGLPQTGDLDQNTIETMRKPRCGNPDVANYNFFPRKPKWDKNQITYRIIGYTPDLDPETVDDAFARAFQVWSDVTPLRFSRIHDGEADIMINFGRWEHGDGYPFDGKDGLLAHAFAPGTGVGGDSHFDDDELWTLGEGQVVRVKYGNADGEYCKFPFLFNGKEYNSCTDTGRSDGFLWCSTTYNFEKDGKYGFCPHEALFTMGGNAEGQPCKFPFRFQGTSYDSCTTEGRTDGYRWCGTTEDYDRDKKYGFCPETAMSTVGGNSEGAPCVFPFTFLGNKYESCTSAGRSDGKMWCATTANYDDDRKWGFCPDQGYSLFLVAAHEFGHAMGLEHSQDPGALMAPIYTYTKNFRLSQDDIKGIQELYGASPDIDLGTGPTPTLGPVTPEICKQDIVFDGIAQIRGEIFFFKDRFIWRTVTPRDKPMGPLLVATFWPELPEKIDAVYEAPQEEKAVFFAGNEYWIYSASTLERGYPKPLTSLGLPPDVQRVDAAFNWSKNKKTYIFAGDKFWRYNEVKKKMDPGFPKLIADAWNAIPDNLDAVVDLQGGGHSYFFKGAYYLKLENQSLKSVKFGSIKSDWLGC
Q: How did the “cleavage of 125I-IGFBP-5 by the proteinase with a 10-fold molar excess of STC” value [1] turn out when B1 was run?
A: The value was “None of the proteinases tested was inhibited by STC1, or by STC2 following incubation”.

Q: And the “cleavage of 125I-IGFBP-5 by the proteinase with a 10-fold molar excess of STC, 8 h preincubation” value [2]?
A: Its value is “None of the proteinases tested was inhibited by STC1, or by STC2 following incubation”.

B2: human matriptase (protein)
chain: VVGGTDADEGEWPWQVSLHALGQGHICGASLISPNWLVSAAHCYIDDRGFRYSDPTQWTAFLGLHDQSQRSAPGVQERRLKRIISHPFFNDFTFDYDIALLELEKPAEYSSMVRPICLPDASHVFPAGKAIWVTGWGHTQYGGTGALILQKGEIRVINQTTCENLLPQQITPRMMCVGFLSGGVDSCQGDSGGPLSSVEADGRIFQAGVVSWGDGCAQRNKPGVYTRLPLFRDWIKENTGV
Q: For B2, which “cleavage of 125I-IGFBP-5 by the proteinase with a 10-fold molar excess of STC” value [1] is on record?
A: The value was “None of the proteinases tested was inhibited by STC1, or by STC2 following incubation”.

Q: What about the “cleavage of 125I-IGFBP-5 by the proteinase with a 10-fold molar excess of STC, 8 h preincubation” value [2] of the same protein?
A: Its value is “None of the proteinases tested was inhibited by STC1, or by STC2 following incubation”.

B3: human ADAM-10 (protein)
chain: TTSAEKNTCQLYIQTDHLFFKYYGTREAVIAQISSHVKAIDTIYQTTDFSGIRNISFMVKRIRINTTADEKDPTNPFRFPNIGVEKFLELNSEQNHDDYCLAYVFTDRDFDDGVLGLAWVGAPSGSSGGICEKSKLYSDGKKKSLNTGIITVQNYGSHVPPKVSHITFAHEVGHNFGSPHDSGTECTPGESKNLGQKENGNYIMYARATSGDKLNNNKFSLCSIRNISQVLEKKRNNCFVESGQPICGNGMVEQGEECDCGYSDQCKDECCFDANQPEGRKCKLKPGKQCSPSQGPCCTAQCAFKSKSEKCRDDSDCAREGICNGFTALCPASDPKPNFTDCNRHTQVCINGQCAGSICEKYGLEECTCASSDGKDDKELCHVCCMKKMDPSTCASTGSVQWSRHFSGRTITLQPGSPCNDFRGYCDVFMRCRLVDADGPLARLKKAIFSPELYENIAE
Q: Which results are given for B3?
A: cleavage of 125I-IGFBP-5 by the proteinase with a 10-fold molar excess of STC [1]: None of the proteinases tested was inhibited by STC1, or by STC2 following incubation; cleavage of 125I-IGFBP-5 by the proteinase with a 10-fold molar excess of STC, 8 h preincubation [2]: None of the proteinases tested was inhibited by STC1, or by STC2 following incubation

B4: recombinant human PAPP-A (pregnancy-associated plasma protein-A, pappalysin-1) (protein)
chain: EARGATEEPSPPSRALYFSGRGEQLRLRADLELPRDAFTLQVWLRAEGGQRSPAVITGLYDKCSYISRDRGWVVGIHTISDQDNKDPRYFFSLKTDRARQVTTINAHRSYLPGQWVYLAATYDGQFMKLYVNGAQVATSGEQVGGIFSPLTQKCKVLMLGGSALNHNYRGYIEHFSLWKVARTQREILSDMETHGAHTALPQLLLQENWDNVKHAWSPMKDGSSPKVEFSNAHGFLLDTSLEPPLCGQTLCDNTEVIASYNQLSSFRQPKVVRYRVVNLYEDDHKNPTVTREQVDFQHHQLAEAFKQYNISWELDVLEVSNSSLRRRLILANCDISKIGDENCDPECNHTLTGHDGGDCRHLRHPAFVKKQHNGVCDMDCNYERFNFDGGECCDPEITNVTQTCFDPDSPHRAYLDVNELKNILKLDGSTHLNIFFAKSSEEELAGVATWPWDKEALMHLGGIVLNPSFYGMPGHTHTMIHEIGHSLGLYHVFRGISEIQSCSDPCMETEPSFETGDLCNDTNPAPKHKSCGDPGPGNDTCGFHSFFNTPYNNFMSYADDDCTDSFTPNQVARMHCYLDLVYQGWQPSRKPAPVALAPQVLGHTTDSVTLEWFPPIDGHFFERELGSACHLCLEGRILVQYASNASSPMPCSPSGHWSPREAEGHPDVEQPCKSSVRTWSPNSAVNPHTVPPACPEPQGCYLELEFLYPLVPESLTIWVTFVSTDWDSSGAVNDIKLLAVSGKNISLGPQNVFCDVPLTIRLWDVGEEVYGIQIYTLDEHLEIDAAMLTSTADTPLCLQCKPLKYKVVRDPPLQMDVASILHLNRKFVDMDLNLGSVYQYWVITISGTEESEPSPAVTYIHGSGYCGDGIIQKDQGEQCDDMNKINGDGCSLFCRQEVSFNCIDEPSRCYFHDGDGVCEEFEQKTSIKDCGVYTPQGFLDQWASNASVSHQDQQCPGWVIIGQPAASQVCRTKVIDLSEGISQHAWYPCTISYPYSQLAQTTFWLRAYFSQPMVAAAVIVHLVTDGTYYGDQKQETISVQLLDTKDQSHDLGLHVLSCRNNPLIIPVVHDLSQPFYHSQAVRVSFSSPLVAISGVALRSFDNFDPVTLSSCQRGETYSPAEQSCVHFACEKTDCPELAVENASLNCSSSDRYHGAQCTVSCRTGYVLQIRRDDELIKSQTGPSVTVTCTEGKWNKQVACEPVDCSIPDHHQVYAASFSCPEGTTFGSQCSFQCRHPAQLKGNNSLLTCMEDGLWSFPEALCELMCLAPPPVPNADLQTARCRENKHKVGSFCKYKCKPGYHVPGSSRKSKKRAFKTQCTQDGSWQEGACVPVTCDPPPPKFHGLYQCTNGFQFNSECRIKCEDSDASQGLGSNVIHCRKDGTWNGSFHVCQEMQGQCSVPNELNSNLKLQCPDGYAIGSECATSCLDHNSESIILPMNVTVRDIPHWLNPTRVERVVCTAGLKWYPHPALIHCVKGCEPFMGDNYCDAINNRAFCNYDGGDCCTSTVKTKKVTPFPMSCDLQGDCACRDPQAQEHSRKDLRGYSHG
Q: Which results are given for B4?
A: PAPP-A cleavage of IGFBP-4 with purified STC added at the beginning of the cleavage reaction [1]: STC1 still inhibited PAPP-A; PAPP-A cleavage of IGFBP-4 with purified STC added at the beginning of the cleavage reaction [2]: in this experiment, no inhibitory effect of STC2 was observed; PAPP-A mediated cleavage of 125I-IGFBP-4 after overnight pre-incubation [2]: the presence of STC2 fully inhibited PAPP-A mediated IGFBP-4 cleavage; PAPP-A proteolytic activity towards IGFBP-4 after 16 h incubation [2]: after 16 hours of incubation with STC2, PAPP-A showed no activity
